# Biological target: T1, HiLyte Fluor 488-labelled Aβ42 oligomers (human, UniProt P05067 672-713, HiLyte Fluor 488 label (position not given))
# T1 construct: amyloid beta-peptide 1-42 (Aβ42), human, the cut product of the amyloid precursor protein; Oligomeric species in the 6 hour aggregation mixture, told from monomers by photobleaching; also called Aβ oligomers; oligomeric Aβ; source: synthetic peptide, bought: AnaSpec; aggregated at 0.5 μM in PBS pH 7.4 for 6 hours
# Assay: single-molecule TIRF two-colour coincidence detection; HiLyte Fluor 488 Aβ42 aggregated 6 hours at 0.5 μM in PBS pH 7.4, dye-labelled sTREM2 added and imaged on slides; monomers told from oligomers by photobleaching; chance coincidence subtracted
# Conditions: both partners purified
binder,measurement,value
"dye-labelled wild-type sTREM2 (TREM2 ectodomain) for single-molecule TIRF (domain or fragment, UniProt Q9NZC2 19-143, looked up, fluorescent dye label: TAMRA in the results, AF647 in the methods (position not given), TREM2 residues 19-143, wild type; The labelled form of m10; also called TAMRA-dye labelled sTREM2; AF647-TREM2; source: Freestyle 293-F cells, transfected (pHLSec), purified from conditioned medium (IMAC, gel filtration), dye-labelled) HNTTVFQGVAGQSLQVSCPYDSMKHWGRRKAWCRQLGEKGPCQRVVSTHNLWLLSFLRRWNGSTAITDDTLGGTLTITLRNLQPHDAGLYQCQSLHGSEADTLRKVLVEVLADPLDHRDAGDLWF",binding result,binds

# — publication doi:10.1101/2020.12.03.409995, “Wild-type sTREM2 blocks Aβ aggregation and neurotoxicity, while the Alzheimer’s R47H mutant does the opposite” (bioRxiv, 2020)
